Data published in patent US5766899.

Columns and labels:
[1] = target: CS receptor on primary mouse hepatocytes (mouse)
[2] = target: CS receptor on primary mouse hepatocytes (mouse); remark: listed apart in the source
[3] = substrate: CS receptor on primary mouse hepatocytes (mouse); remark: listed apart in the source

Row | Molecule | transfection efficiency of primary hepatocytes (X-gal staining) (% transfection efficiency) [1] | further results
1 | BSA/poly(L-lysine) conjugate (from UniProt P02769) | < 10 | 
2 | DHFR-CSF1-His6/poly(L-lysine) conjugate (from UniProt P00375) |  | Blue cells (%) after transfection of primary hepatocytes with conjugate/pCMV-β-gal DNA complex (X-gal staining) [2]: < 1 % blue cells
3 | poly(L-lysine) | < 5 | 
4 | EWSPCSVTCGNGIQVRIKPGSAN [Peptide E35] |  | inhibition of β-galactosidase activity (ONPG) in CS27IVC-His6 conjugate-mediated gene transfer into primary hepatocytes (% inhibited at 0.125 µM) [3]: 50
